Assay results reported in the supplement of paper PMC12042874.
± gives the uncertainty stated by the source.

Experiment: amyloid nucleation score (Sup35N fusion, yeast selection) (log enrichment); library NNK2; higher = more nucleation; inactive = no reads after selection
Procedure, shortened: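 Sup35N fusions to peptides of 20 random codons were expressed in psi-negative yeast, induced 24 hours with 100 μM copper sulfate, and grown 7 days at 30°C on medium lacking adenine and uracil. Input and output plasmid inserts were sequenced by Illumina. The nucleation score is the DiMSum log enrichment of output over input reads, centred on the mode score of non-aggregating sequences. Sequences with under 100 input reads were excluded.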
With CGYLSNRSDNRCDLLYACFR the amyloid nucleation score was 0.571 ± 0.36. With CHGSCSYETSVVCYMWSGKG the amyloid nucleation score was 3.21 ± 0.14. CHHTAYPMANFWQWLKGAMS showed an amyloid nucleation score of 0.069 ± 0.35. For CHLKFNANVKWLGSLGKLEY, the amyloid nucleation score was 4.74 ± 0.069. For CHMDFERFRWLKFSLFCSLH, the amyloid nucleation score was -0.562 ± 1.1. CHTTMPGIVCKLGTYARGEG gave an amyloid nucleation score of 6.638 ± 0.066. For CIMRGREQDFWQSDY, the amyloid nucleation score was 0.116 ± 0.23. With CIQIAIYGWFTDTTIRG the amyloid nucleation score was 6.48 ± 0.03. CITLRYYMDVRLSLHMKRTW gave an amyloid nucleation score of 0.988 ± 0.53. CIVAFEFLYWCRRIAFNPGG gave an amyloid nucleation score of -0.475 ± 0.31. CKCSAAIDVRDYVS showed an amyloid nucleation score of -0.02 ± 1.1. With CKHDCETWWCSY the amyloid nucleation score was 3.48 ± 0.058. Substance CKLPDVTIMDYLLPFM has an amyloid nucleation score of -0.333 ± 0.41. For CKSEYIWYPKFAMGSFDPSQ, the amyloid nucleation score was “inactive”. In the case of CLDPLAMSN, the amyloid nucleation score is reported as “inactive”. For CLLVEHNMLWWWSCCIGCWK, the amyloid nucleation score was 0.635 ± 0.37. CLMDTGVFREYCS gave an amyloid nucleation score of -0.585 ± 0.26. In the case of CLRSCRPYSQTIINVA, the amyloid nucleation score is reported as 6.16 ± 0.062. For CMFFCYYLWMMRMVWSVTWS, the amyloid nucleation score was -0.589 ± 0.53. For CMFGEEFGLNKNVVGSLGLY, the amyloid nucleation score was “inactive”. With CMFLFYVKYLNVHSGGLIML the amyloid nucleation score was “inactive”. With CMFWSHYTIRFSSWWLGGCE the amyloid nucleation score was -0.149 ± 0.79. CMIIKGCTVWVVRP showed an amyloid nucleation score of 9.469 ± 0.055. Substance CMLEIVLLEDFQG has an amyloid nucleation score of -0.632 ± 0.32. Work on CMNSSDLECPMGDCVCVVLN yielded an amyloid nucleation score of 2.82 ± 0.1. Work on CMQTSDEPLRHGP yielded an amyloid nucleation score of -0.06 ± 0.79. With CMQVYTVEYTGFCCATRARK the amyloid nucleation score was 5.09 ± 0.066. CMRVVDGCFYFLDWSGVTDF showed an amyloid nucleation score of -1.55 ± 1.1. In the case of CMSAIFLPMIEF, the amyloid nucleation score is reported as -0.714 ± 0.44. With CMSSDIYFLVFTESEIVSLC the amyloid nucleation score was -0.42 ± 0.76. In the case of CMTGNYYQP, the amyloid nucleation score is reported as “inactive”. CNCVARYGEVKEGIHVAFDY showed an amyloid nucleation score of -0.529 ± 0.76. CNFLQDNVEGVCYNRFKDCL showed an amyloid nucleation score of 0.601 ± 0.49. Substance CNFYCPRDPQSSIVSYTMSY has an amyloid nucleation score of -0.159 ± 1. With CNGFVWLFSVGYFNNRFMWF the amyloid nucleation score was “inactive”. Substance CNGSRVKDFRCRFRWNGLGL has an amyloid nucleation score of -0.889 ± 0.41. With CNMFDCCK the amyloid nucleation score was 0.175 ± 0.42. In the case of CNNSVGVFYKGLTELLCLRS, the amyloid nucleation score is reported as -0.986 ± 1.1. CNRVHYFFCFSCLWMFVFID gave an amyloid nucleation score of -2.07 ± 1.1. With CNTDDWK the amyloid nucleation score was 0.496 ± 0.66. In the case of CPCSRCLVDNKVRL, the amyloid nucleation score is reported as -0.41 ± 0.45. For CPLEAYLD, the amyloid nucleation score was “inactive”. CPRPTCAPHCWYFVLAMVAR showed an amyloid nucleation score of -0.4 ± 0.64. With CPSWSSLLISPYYYSSVSHK the amyloid nucleation score was -0.443 ± 0.79. For CPTNIRP, the amyloid nucleation score was -1.18 ± 0.63. In the case of CPVFGSIGGLISNSWYVTLM, the amyloid nucleation score is reported as 5.335 ± 0.046. With CQAYSSIRFEVL the amyloid nucleation score was “inactive”. In the case of CQFSTQMMVICSFTTLTSVL, the amyloid nucleation score is reported as 1.98 ± 0.13. In the case of CRCTSIRGLKCIRW, the amyloid nucleation score is reported as 0.767 ± 0.15. With CRHYRRYLLNLQVGWMR the amyloid nucleation score was 0.978 ± 0.27. For CRIQPDFRFMCLRNCGLESR, the amyloid nucleation score was -0.855 ± 1. CRKRGH showed an amyloid nucleation score of 1.33 ± 0.49. Work on CRLCWE yielded an amyloid nucleation score of -0.459 ± 0.61. CRLEGKTSVPCDNRGLGWAR gave an amyloid nucleation score of 0.938 ± 0.47. Substance CRLFQSQIYERYTSRCVYRF has an amyloid nucleation score of -1.05 ± 0.79. CRMSLRYTVPYSVQPLRGSL gave an amyloid nucleation score of 0.156 ± 0.41. CRNQGVCDAGQSLLN showed an amyloid nucleation score of 0.897 ± 0.29. In the case of CRRRSPTNGGVNVRN, the amyloid nucleation score is reported as 0.41 ± 0.74. For CRVCRNWIWGTLSSGVTSRL, the amyloid nucleation score was -0.61 ± 0.49. Work on CRWDFVLWRFLCSIKKDWVT yielded an amyloid nucleation score of -0.386 ± 0.79. CSAITEGCKGFVHDVSGVML showed an amyloid nucleation score of -0.27 ± 0.56. Work on CSFHVGNLTWWANVEARVVV yielded an amyloid nucleation score of 0.176 ± 0.29. In the case of CSFSIAFWKS, the amyloid nucleation score is reported as 0.714 ± 0.3. Work on CSKMLTSNRVC yielded an amyloid nucleation score of -0.583 ± 1.1. With CSNADFDSRVFTDANMIFPK the amyloid nucleation score was 4.01 ± 0.098. In the case of CSNGLYPNTVGRLEYS, the amyloid nucleation score is reported as -1.05 ± 0.39. In the case of CSRIHMRIARSSLF, the amyloid nucleation score is reported as 1.18 ± 0.39. In the case of CSRRNRRIGVALRFIFLDIY, the amyloid nucleation score is reported as -0.956 ± 0.78. For CSRRYSLRL, the amyloid nucleation score was -0.319 ± 0.54. Work on CSSWRAYWNSGLQFLVIFGV yielded an amyloid nucleation score of -0.737 ± 0.32. Work on CTIKIGWYWL yielded an amyloid nucleation score of 7.512 ± 0.07. CTILVILSKVSYCQYPWEHV showed an amyloid nucleation score of 1.52 ± 0.14. Work on CTMLLGSESEGWSLQIFVLL yielded an amyloid nucleation score of 0.05 ± 0.62. CTPNWRLSSFRWYVLRTFSE gave an amyloid nucleation score of 0.052 ± 0.37. CTSCLGKRFSCLTINAGLSW gave an amyloid nucleation score of -0.916 ± 0.56. Work on CTWTYE yielded an amyloid nucleation score of 5.92 ± 0.077. Work on CTYHAQVFTFDHPGRSTRYS yielded an amyloid nucleation score of -0.274 ± 0.76. With CVINKKNYDSFGFSVFTFYK the amyloid nucleation score was 3.19 ± 0.074. CVMGPAT showed an amyloid nucleation score of 1.02 ± 0.3. CVSFVQSFCYIHIQLNYHCR gave an amyloid nucleation score of -0.43 ± 1.1. With CVVECIRSNHPSNFMMRNLG the amyloid nucleation score was “inactive”. Work on CWGHS yielded an amyloid nucleation score of -0.792 ± 0.79. For CWLFNTY, the amyloid nucleation score was 3.04 ± 0.14. CWLGASTSNGLPAAGPSGLH showed an amyloid nucleation score of 0.868 ± 0.55. Substance CWNDVIQKMVQYNTINFVLS has an amyloid nucleation score of 4.88 ± 0.063. In the case of CWSTQDHLNCVID, the amyloid nucleation score is reported as “inactive”. Substance CWVRLIVGMTCYAFKGGSVV has an amyloid nucleation score of 0.426 ± 0.43.
